The experiment addresses T1, MBP-TNFR1^ECD deletion mutant ΔCRD1 (human, UniProt P19438 22-211).
T1 chain: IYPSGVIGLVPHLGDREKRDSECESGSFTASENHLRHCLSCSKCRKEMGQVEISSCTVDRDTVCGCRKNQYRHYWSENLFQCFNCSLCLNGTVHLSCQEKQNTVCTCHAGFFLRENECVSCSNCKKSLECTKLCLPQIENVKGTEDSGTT
Put plainly: ITC.

B1: Staphylococcal superantigen-like protein 10 (SSL10), residues 31-227, C-terminal 6xHis (natural protein)
chain: KQNQKSVNKHDKEALYRYYTGKTMEMKNISALKHGKNNLRFKFRGIKIQVLLPGNDKSKFQQRSYEGLDVFFVQEKRDKHDIFYTVGGVIQNNKTSGVVSAPILNISKEKGEDAFVKGYPYYIKKEKITLKELDYKLRKHLIEKYGLYKTISKDGRVKISLKDGSFYNLDLRSKLKFKYMGEVIESKQIKDIEVNLK
As for B1, the affinity, expressed as Kd, was 11.1 µM.

The record behind these values is paper PMC9374677 (2022).
